In PMC11969024 (2025):

B1: peptide HD2 (from tick evasin EVA4) / CCL1 (biotinylated, synthetic) (parent complex)
chain 1: EEDDYTAYAPLTCYFT
chain 2: KSMQVPFSRCCFSFAEQEIPLRAILCYRNTSSICSNEGLIFKLKRGKEACALDTVGWVQRHRKMLRHCPSKRK

Variants of: B1
In the case of chain 1 Y5I, the enrichment is reported as -7.45 log2 (difference from the parental peptide).
For chain 1 Y5L, the enrichment was -5.06 log2 (difference from the parental peptide).
chain 1 A7M was tested, and the enrichment was 1.33 log2 (difference from the parental peptide).
With chain 1 A7L the enrichment was -2.16 log2 (difference from the parental peptide).
chain 1 A7N was tested, and the enrichment was -1.23 log2 (difference from the parental peptide).
In the case of chain 1 A7F, the enrichment is reported as -3.93 log2 (difference from the parental peptide).
In the case of chain 1 A7H, the enrichment is reported as -2.76 log2 (difference from the parental peptide).
chain 1 A7E was tested, and the enrichment was 0.457 log2 (difference from the parental peptide).
For chain 1 A7I, the enrichment was -3.58 log2 (difference from the parental peptide).
chain 1 T16L was tested, and the enrichment was -0.0976 log2 (difference from the parental peptide).
chain 1 T16Q was tested, and the enrichment was 0.281 log2 (difference from the parental peptide).
With chain 1 T16S the enrichment was 0.836 log2 (difference from the parental peptide).
chain 1 T16C was tested, and the enrichment was 0.749 log2 (difference from the parental peptide).
chain 1 T16F was tested, and the enrichment was -0.729 log2 (difference from the parental peptide).
In the case of chain 1 T16A, the enrichment is reported as 1.5 log2 (difference from the parental peptide).
For chain 1 T16G, the enrichment was 1.22 log2 (difference from the parental peptide).
chain 1 L11Y was tested, and the enrichment was 0.82 log2 (difference from the parental peptide).
With chain 1 L11V the enrichment was 3.09 log2 (difference from the parental peptide).
For chain 1 L11Q, the enrichment was 1.31 log2 (difference from the parental peptide).
In the case of chain 1 L11R, the enrichment is reported as 0.643 log2 (difference from the parental peptide).
With chain 1 L11A the enrichment was -2.67 log2 (difference from the parental peptide).
For chain 1 L11S, the enrichment was -4.97 log2 (difference from the parental peptide).
In the case of chain 1 L11G, the enrichment is reported as -8.48 log2 (difference from the parental peptide).
chain 1 L11T was tested, and the enrichment was -0.173 log2 (difference from the parental peptide).
In the case of chain 1 D4P, the enrichment is reported as -4.71 log2 (difference from the parental peptide).
In the case of chain 1 D4I, the enrichment is reported as -6.7 log2 (difference from the parental peptide).
With chain 1 D4L the enrichment was -6.1 log2 (difference from the parental peptide).
With chain 1 D4F the enrichment was -6.41 log2 (difference from the parental peptide).
chain 1 D4H was tested, and the enrichment was -7 log2 (difference from the parental peptide).
For chain 1 D4Y, the enrichment was -4.35 log2 (difference from the parental peptide).
In the case of chain 1 C13P, the enrichment is reported as -6.51 log2 (difference from the parental peptide).
For chain 1 C13V, the enrichment was -4.73 log2 (difference from the parental peptide).
chain 1 C13G was tested, and the enrichment was -9.66 log2 (difference from the parental peptide).
chain 1 C13S was tested, and the enrichment was -4.71 log2 (difference from the parental peptide).
chain 1 C13N was tested, and the enrichment was -5.11 log2 (difference from the parental peptide).
With chain 1 T12C the enrichment was -5.86 log2 (difference from the parental peptide).
For chain 1 T12S, the enrichment was -1.12 log2 (difference from the parental peptide).
For chain 1 T12P, the enrichment was 0.359 log2 (difference from the parental peptide).
With chain 1 T12V the enrichment was -1.56 log2 (difference from the parental peptide).
For chain 1 T12Y, the enrichment was 1.88 log2 (difference from the parental peptide).
In the case of chain 1 T12G, the enrichment is reported as -9.53 log2 (difference from the parental peptide).
With chain 1 Y8M the enrichment was -7.72 log2 (difference from the parental peptide).
For chain 1 Y8L, the enrichment was -7.27 log2 (difference from the parental peptide).
With chain 1 Y8V the enrichment was -4.63 log2 (difference from the parental peptide).
For chain 1 Y8F, the enrichment was -0.41 log2 (difference from the parental peptide).
chain 1 Y14I was tested, and the enrichment was -4.18 log2 (difference from the parental peptide).
In the case of chain 1 Y14Q, the enrichment is reported as -5.69 log2 (difference from the parental peptide).
For chain 1 Y14R, the enrichment was -7.32 log2 (difference from the parental peptide).
For chain 1 Y14F, the enrichment was 0.0997 log2 (difference from the parental peptide).
For chain 1 Y14T, the enrichment was -6.17 log2 (difference from the parental peptide).
In the case of chain 1 F15H, the enrichment is reported as 2.15 log2 (difference from the parental peptide).
In the case of chain 1 F15A, the enrichment is reported as 2.04 log2 (difference from the parental peptide).
With chain 1 F15E the enrichment was -0.986 log2 (difference from the parental peptide).
For chain 1 F15V, the enrichment was 2.71 log2 (difference from the parental peptide).
For chain 1 F15N, the enrichment was -1.79 log2 (difference from the parental peptide).
With chain 1 D3E the enrichment was 1.49 log2 (difference from the parental peptide).
chain 1 D3T was tested, and the enrichment was -2.84 log2 (difference from the parental peptide).
For chain 1 E1G, the enrichment was -1.01 log2 (difference from the parental peptide).
For chain 1 E1T, the enrichment was -1.42 log2 (difference from the parental peptide).
With chain 1 E1I the enrichment was -1.54 log2 (difference from the parental peptide).
For chain 1 E1R, the enrichment was -4.21 log2 (difference from the parental peptide).
With chain 1 E1D the enrichment was 2.01 log2 (difference from the parental peptide).
chain 1 E1Y was tested, and the enrichment was -0.577 log2 (difference from the parental peptide).
For chain 1 T6Q, the enrichment was 1.62 log2 (difference from the parental peptide).
chain 1 T6V was tested, and the enrichment was -5.45 log2 (difference from the parental peptide).
In the case of chain 1 T6C, the enrichment is reported as -10.4 log2 (difference from the parental peptide).
chain 1 T6F was tested, and the enrichment was -4.18 log2 (difference from the parental peptide).
With chain 1 T6N the enrichment was 0.938 log2 (difference from the parental peptide).
chain 1 T6E was tested, and the enrichment was 3.09 log2 (difference from the parental peptide).
In the case of chain 1 T6Y, the enrichment is reported as -1.82 log2 (difference from the parental peptide).
In the case of chain 1 T6I, the enrichment is reported as -5.87 log2 (difference from the parental peptide).
With chain 1 A9E the enrichment was 2.72 log2 (difference from the parental peptide).
In the case of chain 1 A9Y, the enrichment is reported as -5.89 log2 (difference from the parental peptide).
chain 1 E2A was tested, and the enrichment was -1.98 log2 (difference from the parental peptide).
In the case of chain 1 E2H, the enrichment is reported as -3.7 log2 (difference from the parental peptide).
